# B1: GLS3000 H34P one-arm antibody (antibody, human IgG1, kappa, L234A L235A, N297A, name in Kabat numbering)
# heavy: QVQLVESGGGVVQPGRSLRLSCAASGFTFSNAWMHWVRQAPGKGLEWVAQIKAKSNNYATYYAESVKGRFTISRDDSKNSLYLQMNSLKTEDTAVYYCRYVHYGAYYGVDAWGQGTTVTVSSASTKGPSVFPLAPSSKSTSGGTAALGCLVKDYFPEPVTVSWNSGALTSGVHTFPAVLQSSGLYSLSSVVTVPSSSLGTQTYICNVNHKPSNTKVDKKVEPKSCDKTHTCPPCPAPEAAGGPSVFLFPPKPKDTLMISRTPEVTCVVVDVSHEDPEVKFNWYVDGVEVHNAKTKPREEQYASTYRVVSVLTVLHQDWLNGKEYKCKVSNKALPAPIEKTISKAKGQPREPQVYTLPPSRCELTKNQVSLSCAVKGFYPSDIAVEWESNGQPENNYKTTPPVLDSDGSFFLVSKLTVDKSRWQQGNVFSCSVMHEALHNHYTQKSLSLSPDYKDDDDK
# chain: EPKSSDKTHTCPPCPAPELLGGPSVFLFPPKPKDTLMISRTPEVTCVVVDVSHEDPEVKFNWYVDGVEVHNAKTKPREEQYNSTYRVVSVLTVLHQDWLNGKEYKCKVSNKALPAPIEKTISKAKGQPREPQVCTLPPSRDELTKNQVSLWCLVKGFYPSDIAVEWESNGQPENNYKTTPPVLDSDGSFFLYSKLTVDKSRWQQGNVFSCSVMHEALHNRYTQKSLSLSP
# light: DIVMTQSPLSLPVTPGEPASISCRSSQSLVHSNRNTYLPWYQQKPGQAPRLLIYKVSNRFSGVPDRFSGSGSGTDFTLKISRVEAEDVGVYYCGQGTQVPYTFGQGTKLEIKRTVAAPSVFIFPPSDEQLKSGTASVVCLLNNFYPREAKVQWKVDNALQSGNSQESVTEQDSKDSTYSLSSTLTLSKADYEKHKVYACEVTHQGLSSPVTKSFNRGEC
# B2: GLS3000 H34S one-arm antibody (antibody, human IgG1, kappa, L234A L235A, N297A, name in Kabat numbering)
# heavy: QVQLVESGGGVVQPGRSLRLSCAASGFTFSNAWMHWVRQAPGKGLEWVAQIKAKSNNYATYYAESVKGRFTISRDDSKNSLYLQMNSLKTEDTAVYYCRYVHYGAYYGVDAWGQGTTVTVSSASTKGPSVFPLAPSSKSTSGGTAALGCLVKDYFPEPVTVSWNSGALTSGVHTFPAVLQSSGLYSLSSVVTVPSSSLGTQTYICNVNHKPSNTKVDKKVEPKSCDKTHTCPPCPAPEAAGGPSVFLFPPKPKDTLMISRTPEVTCVVVDVSHEDPEVKFNWYVDGVEVHNAKTKPREEQYASTYRVVSVLTVLHQDWLNGKEYKCKVSNKALPAPIEKTISKAKGQPREPQVYTLPPSRCELTKNQVSLSCAVKGFYPSDIAVEWESNGQPENNYKTTPPVLDSDGSFFLVSKLTVDKSRWQQGNVFSCSVMHEALHNHYTQKSLSLSPDYKDDDDK
# chain: EPKSSDKTHTCPPCPAPELLGGPSVFLFPPKPKDTLMISRTPEVTCVVVDVSHEDPEVKFNWYVDGVEVHNAKTKPREEQYNSTYRVVSVLTVLHQDWLNGKEYKCKVSNKALPAPIEKTISKAKGQPREPQVCTLPPSRDELTKNQVSLWCLVKGFYPSDIAVEWESNGQPENNYKTTPPVLDSDGSFFLYSKLTVDKSRWQQGNVFSCSVMHEALHNRYTQKSLSLSP
# light: DIVMTQSPLSLPVTPGEPASISCRSSQSLVHSNRNTYLSWYQQKPGQAPRLLIYKVSNRFSGVPDRFSGSGSGTDFTLKISRVEAEDVGVYYCGQGTQVPYTFGQGTKLEIKRTVAAPSVFIFPPSDEQLKSGTASVVCLLNNFYPREAKVQWKVDNALQSGNSQESVTEQDSKDSTYSLSSTLTLSKADYEKHKVYACEVTHQGLSSPVTKSFNRGEC
# B3: GLS3000 H34Q one-arm antibody (antibody, human IgG1, kappa, L234A L235A, N297A, name in Kabat numbering)
# heavy: QVQLVESGGGVVQPGRSLRLSCAASGFTFSNAWMHWVRQAPGKGLEWVAQIKAKSNNYATYYAESVKGRFTISRDDSKNSLYLQMNSLKTEDTAVYYCRYVHYGAYYGVDAWGQGTTVTVSSASTKGPSVFPLAPSSKSTSGGTAALGCLVKDYFPEPVTVSWNSGALTSGVHTFPAVLQSSGLYSLSSVVTVPSSSLGTQTYICNVNHKPSNTKVDKKVEPKSCDKTHTCPPCPAPEAAGGPSVFLFPPKPKDTLMISRTPEVTCVVVDVSHEDPEVKFNWYVDGVEVHNAKTKPREEQYASTYRVVSVLTVLHQDWLNGKEYKCKVSNKALPAPIEKTISKAKGQPREPQVYTLPPSRCELTKNQVSLSCAVKGFYPSDIAVEWESNGQPENNYKTTPPVLDSDGSFFLVSKLTVDKSRWQQGNVFSCSVMHEALHNHYTQKSLSLSPDYKDDDDK
# chain: EPKSSDKTHTCPPCPAPELLGGPSVFLFPPKPKDTLMISRTPEVTCVVVDVSHEDPEVKFNWYVDGVEVHNAKTKPREEQYNSTYRVVSVLTVLHQDWLNGKEYKCKVSNKALPAPIEKTISKAKGQPREPQVCTLPPSRDELTKNQVSLWCLVKGFYPSDIAVEWESNGQPENNYKTTPPVLDSDGSFFLYSKLTVDKSRWQQGNVFSCSVMHEALHNRYTQKSLSLSP
# light: DIVMTQSPLSLPVTPGEPASISCRSSQSLVHSNRNTYLQWYQQKPGQAPRLLIYKVSNRFSGVPDRFSGSGSGTDFTLKISRVEAEDVGVYYCGQGTQVPYTFGQGTKLEIKRTVAAPSVFIFPPSDEQLKSGTASVVCLLNNFYPREAKVQWKVDNALQSGNSQESVTEQDSKDSTYSLSSTLTLSKADYEKHKVYACEVTHQGLSSPVTKSFNRGEC
# B4: GLS3000 H34R one-arm antibody (antibody, human IgG1, kappa, L234A L235A, N297A, name in Kabat numbering)
# heavy: QVQLVESGGGVVQPGRSLRLSCAASGFTFSNAWMHWVRQAPGKGLEWVAQIKAKSNNYATYYAESVKGRFTISRDDSKNSLYLQMNSLKTEDTAVYYCRYVHYGAYYGVDAWGQGTTVTVSSASTKGPSVFPLAPSSKSTSGGTAALGCLVKDYFPEPVTVSWNSGALTSGVHTFPAVLQSSGLYSLSSVVTVPSSSLGTQTYICNVNHKPSNTKVDKKVEPKSCDKTHTCPPCPAPEAAGGPSVFLFPPKPKDTLMISRTPEVTCVVVDVSHEDPEVKFNWYVDGVEVHNAKTKPREEQYASTYRVVSVLTVLHQDWLNGKEYKCKVSNKALPAPIEKTISKAKGQPREPQVYTLPPSRCELTKNQVSLSCAVKGFYPSDIAVEWESNGQPENNYKTTPPVLDSDGSFFLVSKLTVDKSRWQQGNVFSCSVMHEALHNHYTQKSLSLSPDYKDDDDK
# chain: EPKSSDKTHTCPPCPAPELLGGPSVFLFPPKPKDTLMISRTPEVTCVVVDVSHEDPEVKFNWYVDGVEVHNAKTKPREEQYNSTYRVVSVLTVLHQDWLNGKEYKCKVSNKALPAPIEKTISKAKGQPREPQVCTLPPSRDELTKNQVSLWCLVKGFYPSDIAVEWESNGQPENNYKTTPPVLDSDGSFFLYSKLTVDKSRWQQGNVFSCSVMHEALHNRYTQKSLSLSP
# light: DIVMTQSPLSLPVTPGEPASISCRSSQSLVHSNRNTYLRWYQQKPGQAPRLLIYKVSNRFSGVPDRFSGSGSGTDFTLKISRVEAEDVGVYYCGQGTQVPYTFGQGTKLEIKRTVAAPSVFIFPPSDEQLKSGTASVVCLLNNFYPREAKVQWKVDNALQSGNSQESVTEQDSKDSTYSLSSTLTLSKADYEKHKVYACEVTHQGLSSPVTKSFNRGEC
# B5: GLS3000 H34V one-arm antibody (antibody, human IgG1, kappa, L234A L235A, N297A, name in Kabat numbering)
# heavy: QVQLVESGGGVVQPGRSLRLSCAASGFTFSNAWMHWVRQAPGKGLEWVAQIKAKSNNYATYYAESVKGRFTISRDDSKNSLYLQMNSLKTEDTAVYYCRYVHYGAYYGVDAWGQGTTVTVSSASTKGPSVFPLAPSSKSTSGGTAALGCLVKDYFPEPVTVSWNSGALTSGVHTFPAVLQSSGLYSLSSVVTVPSSSLGTQTYICNVNHKPSNTKVDKKVEPKSCDKTHTCPPCPAPEAAGGPSVFLFPPKPKDTLMISRTPEVTCVVVDVSHEDPEVKFNWYVDGVEVHNAKTKPREEQYASTYRVVSVLTVLHQDWLNGKEYKCKVSNKALPAPIEKTISKAKGQPREPQVYTLPPSRCELTKNQVSLSCAVKGFYPSDIAVEWESNGQPENNYKTTPPVLDSDGSFFLVSKLTVDKSRWQQGNVFSCSVMHEALHNHYTQKSLSLSPDYKDDDDK
# chain: EPKSSDKTHTCPPCPAPELLGGPSVFLFPPKPKDTLMISRTPEVTCVVVDVSHEDPEVKFNWYVDGVEVHNAKTKPREEQYNSTYRVVSVLTVLHQDWLNGKEYKCKVSNKALPAPIEKTISKAKGQPREPQVCTLPPSRDELTKNQVSLWCLVKGFYPSDIAVEWESNGQPENNYKTTPPVLDSDGSFFLYSKLTVDKSRWQQGNVFSCSVMHEALHNRYTQKSLSLSP
# light: DIVMTQSPLSLPVTPGEPASISCRSSQSLVHSNRNTYLVWYQQKPGQAPRLLIYKVSNRFSGVPDRFSGSGSGTDFTLKISRVEAEDVGVYYCGQGTQVPYTFGQGTKLEIKRTVAAPSVFIFPPSDEQLKSGTASVVCLLNNFYPREAKVQWKVDNALQSGNSQESVTEQDSKDSTYSLSSTLTLSKADYEKHKVYACEVTHQGLSSPVTKSFNRGEC
# B6: GLS3000 H34T one-arm antibody (antibody, human IgG1, kappa, L234A L235A, N297A, name in Kabat numbering)
# heavy: QVQLVESGGGVVQPGRSLRLSCAASGFTFSNAWMHWVRQAPGKGLEWVAQIKAKSNNYATYYAESVKGRFTISRDDSKNSLYLQMNSLKTEDTAVYYCRYVHYGAYYGVDAWGQGTTVTVSSASTKGPSVFPLAPSSKSTSGGTAALGCLVKDYFPEPVTVSWNSGALTSGVHTFPAVLQSSGLYSLSSVVTVPSSSLGTQTYICNVNHKPSNTKVDKKVEPKSCDKTHTCPPCPAPEAAGGPSVFLFPPKPKDTLMISRTPEVTCVVVDVSHEDPEVKFNWYVDGVEVHNAKTKPREEQYASTYRVVSVLTVLHQDWLNGKEYKCKVSNKALPAPIEKTISKAKGQPREPQVYTLPPSRCELTKNQVSLSCAVKGFYPSDIAVEWESNGQPENNYKTTPPVLDSDGSFFLVSKLTVDKSRWQQGNVFSCSVMHEALHNHYTQKSLSLSPDYKDDDDK
# chain: EPKSSDKTHTCPPCPAPELLGGPSVFLFPPKPKDTLMISRTPEVTCVVVDVSHEDPEVKFNWYVDGVEVHNAKTKPREEQYNSTYRVVSVLTVLHQDWLNGKEYKCKVSNKALPAPIEKTISKAKGQPREPQVCTLPPSRDELTKNQVSLWCLVKGFYPSDIAVEWESNGQPENNYKTTPPVLDSDGSFFLYSKLTVDKSRWQQGNVFSCSVMHEALHNRYTQKSLSLSP
# light: DIVMTQSPLSLPVTPGEPASISCRSSQSLVHSNRNTYLTWYQQKPGQAPRLLIYKVSNRFSGVPDRFSGSGSGTDFTLKISRVEAEDVGVYYCGQGTQVPYTFGQGTKLEIKRTVAAPSVFIFPPSDEQLKSGTASVVCLLNNFYPREAKVQWKVDNALQSGNSQESVTEQDSKDSTYSLSSTLTLSKADYEKHKVYACEVTHQGLSSPVTKSFNRGEC
# Molecular target: T1, CD3ε homodimer protein (human, UniProt P07766 23-126, limits assumed)
# T1 construct: also called CD3 (CD3ε)
# Experiment: SPR Biacore T200, CD3ε homodimer on chip;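 further: Light-chain single-residue variant antibodies injected over amine-coupled CD3ε homodimer on a CM4 chip at 25 °C, bound amount divided by that of the GLS3000-containing antibody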
# T1 sequence (P07766 23-126 limits assumed): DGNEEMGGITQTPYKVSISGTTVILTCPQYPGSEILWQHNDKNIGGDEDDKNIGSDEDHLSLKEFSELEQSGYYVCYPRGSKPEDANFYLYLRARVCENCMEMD
row,ratio of amount bound vs unaltered GLS3000,Binder
1,0.34,B1
2,0.78,B2
3,0.25,B3
4,0.2,B4
5,0.85,B5
6,0.89,B6
